The target of this assay is HA–KLC2, O88448. The experiment in a line: GST pull-down, immunoblot (IB: HA) quantified. The conditions noted are these: chain shown with the change; lysates of 293T cells co-expressing HA-KHC and HA-KLC2 (kinesin-1 tetramer); three independent experiments; parent: est. 1.0; read off a plot. (In general: In western blotting, separated proteins are transferred to a membrane and probed.)
Chain of HA–KLC2, O88448 (O88448 whole entry): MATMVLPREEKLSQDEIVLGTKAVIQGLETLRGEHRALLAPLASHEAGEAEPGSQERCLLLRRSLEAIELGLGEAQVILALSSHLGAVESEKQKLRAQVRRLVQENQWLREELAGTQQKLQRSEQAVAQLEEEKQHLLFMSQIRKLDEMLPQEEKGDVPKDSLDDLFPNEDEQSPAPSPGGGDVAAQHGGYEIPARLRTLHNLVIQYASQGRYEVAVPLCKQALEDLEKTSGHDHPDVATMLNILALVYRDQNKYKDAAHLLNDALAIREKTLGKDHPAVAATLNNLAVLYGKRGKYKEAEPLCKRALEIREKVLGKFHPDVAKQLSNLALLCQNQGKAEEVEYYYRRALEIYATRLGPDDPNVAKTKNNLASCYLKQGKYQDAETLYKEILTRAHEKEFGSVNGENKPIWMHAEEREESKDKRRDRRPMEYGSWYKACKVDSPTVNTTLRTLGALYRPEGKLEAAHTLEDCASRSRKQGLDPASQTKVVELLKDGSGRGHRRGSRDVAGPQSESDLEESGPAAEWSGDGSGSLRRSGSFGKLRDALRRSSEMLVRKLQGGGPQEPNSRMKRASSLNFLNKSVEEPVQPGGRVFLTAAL

B1: GST–SKIP(1-310), Q8IWE5 D220A; F221A; G222A (protein)
chain: MEPGEVKDRILENISLSVKKLQSYFAACEDEIPAIRNHDKVLQRLCEHLDHALLYGLQDLSSGYWVLVVHFTRREAIKQIEVLQHVATNLGRSRAWLYLALNENSLESYLRLFQENLGLLHKYYVKNALVCSHDHLTLFLTLVSGLEFIRFELDLDAPYLDLAPYMPDYYKPQYLLDFEDRLPSSVHGSDSLSLNSFNSVTSTNLEWDDSAIAPSSEDYAAADVFPAVPSVPSTDWEDGDLTDTVSGPRSTASDLTSSKASTRSPTQRQNPFNEEPAETVSSSDTTPVHTTSQEKEEAQALDPPDACTEL
Take B1: the ratio to parent came out at 0.47.

B2: GST–SKIP(1-310), Q8IWE5 D238A; G239A; D240A (protein)
chain: MEPGEVKDRILENISLSVKKLQSYFAACEDEIPAIRNHDKVLQRLCEHLDHALLYGLQDLSSGYWVLVVHFTRREAIKQIEVLQHVATNLGRSRAWLYLALNENSLESYLRLFQENLGLLHKYYVKNALVCSHDHLTLFLTLVSGLEFIRFELDLDAPYLDLAPYMPDYYKPQYLLDFEDRLPSSVHGSDSLSLNSFNSVTSTNLEWDDSAIAPSSEDYDFGDVFPAVPSVPSTDWEAAALTDTVSGPRSTASDLTSSKASTRSPTQRQNPFNEEPAETVSSSDTTPVHTTSQEKEEAQALDPPDACTEL
For the molecule B2, the ratio to parent was 0.89.

B3: GST–SKIP(1-310), Q8IWE5 W236A; E237A (protein)
chain: MEPGEVKDRILENISLSVKKLQSYFAACEDEIPAIRNHDKVLQRLCEHLDHALLYGLQDLSSGYWVLVVHFTRREAIKQIEVLQHVATNLGRSRAWLYLALNENSLESYLRLFQENLGLLHKYYVKNALVCSHDHLTLFLTLVSGLEFIRFELDLDAPYLDLAPYMPDYYKPQYLLDFEDRLPSSVHGSDSLSLNSFNSVTSTNLEWDDSAIAPSSEDYDFGDVFPAVPSVPSTDAADGDLTDTVSGPRSTASDLTSSKASTRSPTQRQNPFNEEPAETVSSSDTTPVHTTSQEKEEAQALDPPDACTEL
As to B3, the ratio to parent was 0.95.

B4: GST–SKIP(1-310), Q8IWE5 E217A; D218A; Y219A (protein)
chain: MEPGEVKDRILENISLSVKKLQSYFAACEDEIPAIRNHDKVLQRLCEHLDHALLYGLQDLSSGYWVLVVHFTRREAIKQIEVLQHVATNLGRSRAWLYLALNENSLESYLRLFQENLGLLHKYYVKNALVCSHDHLTLFLTLVSGLEFIRFELDLDAPYLDLAPYMPDYYKPQYLLDFEDRLPSSVHGSDSLSLNSFNSVTSTNLEWDDSAIAPSSAAADFGDVFPAVPSVPSTDWEDGDLTDTVSGPRSTASDLTSSKASTRSPTQRQNPFNEEPAETVSSSDTTPVHTTSQEKEEAQALDPPDACTEL
Turning to B4, the ratio to parent was 0.63.

Values taken from PMC5450233.
